In series [1] the target is MsyB (Escherichia coli protein MsyB) (E. coli) (UniProt P25738). In words: SEC. (In gel filtration, larger molecules generally elute earlier.)
Series [2] shares this target. In words: BLI.
Series [3] concerns the target HUαα (HU alpha homodimer) (Escherichia coli, UniProt P0ACF0 1-90). In words: EMSA.
For series [4], the target named is β-clamp (β subunit of DNA polymerase) (E. coli, UniProt P0A988 1-366). In words: BLI. A general note: Biolayer interferometry detects binding as a change in optical thickness at a sensor tip.
β-clamp (β subunit of DNA polymerase), sequence (P0A988 whole entry): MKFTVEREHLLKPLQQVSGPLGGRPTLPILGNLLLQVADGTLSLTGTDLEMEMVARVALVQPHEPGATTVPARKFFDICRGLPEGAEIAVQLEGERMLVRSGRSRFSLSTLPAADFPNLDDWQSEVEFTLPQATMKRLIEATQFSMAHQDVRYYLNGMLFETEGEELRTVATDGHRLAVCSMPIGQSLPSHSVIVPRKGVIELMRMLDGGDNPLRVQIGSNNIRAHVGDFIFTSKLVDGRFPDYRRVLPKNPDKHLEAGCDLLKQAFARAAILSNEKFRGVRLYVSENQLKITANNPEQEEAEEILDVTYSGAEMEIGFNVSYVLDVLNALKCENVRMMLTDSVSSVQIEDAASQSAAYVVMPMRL
For the next series, the target named is T1, IHF (E. coli, UniProt P0A6X7 1-99; P0A6Y1 1-94).
T1 sequence (looked up) 1: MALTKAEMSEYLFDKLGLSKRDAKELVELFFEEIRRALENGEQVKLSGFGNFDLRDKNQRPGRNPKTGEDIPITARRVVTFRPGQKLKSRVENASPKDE
T1 sequence (looked up) 2: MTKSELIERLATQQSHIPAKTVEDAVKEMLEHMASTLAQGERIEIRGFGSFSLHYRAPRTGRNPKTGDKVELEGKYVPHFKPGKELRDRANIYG

The next series has as its target T2, HUαβ (E. coli, UniProt P0ACF0 1-90; P0ACF4 1-90).
T2 sequence (looked up) 1: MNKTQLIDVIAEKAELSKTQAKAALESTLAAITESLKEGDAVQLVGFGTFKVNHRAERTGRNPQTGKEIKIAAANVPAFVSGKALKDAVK
T2 sequence (looked up) 2: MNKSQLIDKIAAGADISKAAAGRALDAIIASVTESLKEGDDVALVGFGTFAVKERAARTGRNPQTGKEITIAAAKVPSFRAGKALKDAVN
The series is described as follows: BLI.

As to “HUαα (from UniProt P0ACF0 1-90) (natural protein)”, the stoichiometry N (as a rule, a count of units in the complex or per binding partner) in series [1] was 1. Besides, in series [2], the Kd (commonly a measure of binding affinity in units of concentration) amounted to 4.88 nM.

Consider “β-clamp (β subunit of DNA polymerase) (from UniProt P0A988 1-366) (natural protein)”, for which the Kd in series [2] is 700 nM.

B1: dsDNA (DNA1/DNA2), 21 bp (dsDNA)
DNA 1: TGCTTATCAATTTGTTGCACC
DNA 2: GGTGCAACAAATTGATAAGCA
Regarding B1, in series [3], the binding result is listed as “binds”.

B2: HUαα-MsyB complex (complex, E. coli)
chain 1: T2 sequence (looked up) 1
chain 2: MTMYATLEEAIDAAREEFLADNPGIDAEDANVQQFNAQKYVLQDGDIMWQVEFFADEGEEGECLPMLSGEAAQSVFDGDYDEIEIRQEWQEENTLHEWDEGEFQLEPPLDTEEGRAAADEWDER
In series [4], B2 had a Kd of 500 nM.

B3: MsyB (Escherichia coli protein MsyB) (natural protein, E. coli, UniProt P25738 1-124, looked up)
chain: B2 chain 2
Consider B3, for which the figures for the Kd in the series with IHF and in the series with HUαβ were 95 nM and 3.22 nM, respectively.

(Values after article doi:10.1101/2025.02.25.640118 (bioRxiv, 2025).)
